The target of experiment [1] is HLA-A*69:01. The experiment is described as follows: IEDB peptide-MHC binding, purified MHC/competitive/fluorescence; filed as Kd, often an IC50 or EC50 that approximates it; ≥ and ≤ were set here for values at or beyond the usual limits of such assays.
Experiment [2] deals with HLA-A*02:01. The description is as above.
Another experiment concerns the target HLA-A*02:16. The experiment is described as above. The note with it: source organism: Human immunodeficiency virus type 1 (Z-84 ISOLATE).
For experiment [3], the target named is HLA-A*02:19. The experiment is described as above. The note with it: source organism: Human immunodeficiency virus type 1 (Z-84 ISOLATE).
Another experiment has as its target HLA-C*15:02. The experiment is described as follows: IEDB peptide-MHC binding, purified MHC/direct/fluorescence; filed as Kd, often an IC50 or EC50 that approximates it; ≥ and ≤ were set here for values at or beyond the usual limits of such assays. The note with it: source organism: Human immunodeficiency virus type 1 (Z-84 ISOLATE).
In another experiment the target is HLA-B*51:01. The experiment is described as follows: IEDB peptide-MHC binding, purified MHC/competitive/fluorescence; filed as Kd, often an IC50 or EC50 that approximates it; ≥ and ≤ were set here for values at or beyond the usual limits of such assays. The note with it: source organism: Reston ebolavirus.
In a further experiment the target is HLA-B*57:01. The experiment is described as above. The note with it: source organism: Reston ebolavirus.
A further experiment deals with HLA-B*18:01. The experiment is described as above. The note with it: source organism: Reston ebolavirus.
The target of experiment [4] is HLA-B*15:01. The description is as above. The note with it: source organism: Reston ebolavirus.
The next experiment concerns the target HLA-B*27:03. The experiment is described as above. The note with it: source organism: Reston ebolavirus.
The next experiment concerns the target HLA-B*15:17. The description is as above. The note with it: source organism: Reston ebolavirus.
The target in the next experiment is HLA-B*46:01. Described as above. The note with it: source organism: Reston ebolavirus.
The target of a further experiment is HLA-B*39:01. The description is as above. The note with it: source organism: Reston ebolavirus.
Experiment [5] deals with HLA-A*26:01. The experiment is described as above. The note with it: source organism: Reston ebolavirus.
The target of another experiment is HLA-A*68:02. Put plainly: IEDB peptide-MHC binding, purified MHC/direct/fluorescence; filed as Kd, often an IC50 or EC50 that approximates it; ≥ and ≤ were set here for values at or beyond the usual limits of such assays. The note with it: source organism: Reston ebolavirus.
A further experiment addresses HLA-A*23:01. The description is as above.
The target of a further experiment is HLA-A*02:03. The description is as above. The note with it: source organism: Reston ebolavirus.
Another experiment has as its target HLA-A*02:12. The experiment is described as above. The note with it: source organism: Reston ebolavirus.
The target in another experiment is HLA-A*03:01. Described as above.
The next experiment has as its target HLA-A*29:02. The description is as above. The note with it: source organism: Reston ebolavirus.
For a further experiment, the target named is HLA-A*24:03. The description is as above.
Experiment [6] concerns the target HLA-A*02:19. The description is as above. The note with it: source organism: Reston ebolavirus.
A further experiment has as its target HLA-A*02:11. The description is as above. The note with it: source organism: Reston ebolavirus.
Another experiment concerns the target HLA-A*01:01. Described as above.
Experiment [7] concerns the target HLA-A*69:01. Described as above. The note with it: source organism: Vibrio vulnificus.
The target of the next experiment is HLA-B*08:01. Described as above. The note with it: source organism: Haemophilus influenzae.
In another experiment the target is HLA-B*44:02. The description is as above. The note with it: source organism: Haemophilus influenzae.
In experiment [8] the target is HLA-A*02:01. Described as above. The note with it: source organism: Vibrio vulnificus.
The target of the next experiment is HLA-B*58:01. The description is as above. The note with it: source organism: Haemophilus influenzae.
Another experiment addresses HLA-B*35:01. Described as above. The note with it: source organism: Vibrio vulnificus.
The target in experiment [9] is HLA-B*15:01. The experiment is described as above. The note with it: source organism: Vibrio vulnificus.
For the next experiment, the target named is HLA-A*11:01. Described as above.
For a further experiment, the target named is HLA-B*07:02. Described as above. The note with it: source organism: Vibrio vulnificus.
Experiment [10] concerns the target HLA-A*31:01. The description is as above. The note with it: source organism: Haemophilus influenzae.
A further experiment concerns the target HLA-C*12:03. The experiment is described as above. The note with it: source organism: Yersinia pestis Nepal516.
For a further experiment, the target named is HLA-B*27:05. Described as above. The note with it: source organism: Haemophilus influenzae.
The target in experiment [11] is HLA-A*26:01. Described as above. The note with it: source organism: Haemophilus influenzae.
For another experiment, the target named is HLA-B*45:06. The experiment is described as follows: IEDB peptide-MHC binding, purified MHC/competitive/fluorescence; filed as Kd, often an IC50 or EC50 that approximates it; ≥ and ≤ were set here for values at or beyond the usual limits of such assays. The note with it: source organism: Entamoeba histolytica.
For the next experiment, the target named is HLA-B*83:01. Described as above. The note with it: source organism: Entamoeba histolytica.
In a further experiment the target is HLA-A*32:07. The description is as above. The note with it: source organism: Entamoeba histolytica.
In experiment [12] the target is HLA-A*31:01. Described as above. The note with it: source organism: Entamoeba histolytica.
The target of the next experiment is HLA-B*15:42. The description is as above. The note with it: source organism: Entamoeba histolytica.
[13] abbreviates: source organism: Human immunodeficiency virus type 1 (Z-84 ISOLATE).
Where [14] appears, read: source organism: Reston ebolavirus.
Setting [15] is: source organism: Haemophilus influenzae.
[16] abbreviates: source organism: Entamoeba histolytica.
Where [17] appears, read: source organism: Vibrio vulnificus CMCP6.

pKd: −log10 of the molar value.

A word on the pKd: it is −log10 of the Kd, conventionally taken in molar units. Lower therefore signals a large Kd. YIKIFIMIV: the pKd with HLA-A*69:01 [1] (setting [13]), with HLA-A*02:01 [2] (setting [13]), with HLA-A*02:16, in the experiment with HLA-A*02:19 [3] and in the experiment with HLA-C*15:02 was not above 4.70 in each case.

Consider ITDEINQIK, for which the pKd with HLA-A*69:01 [1] (setting [14]), with HLA-B*51:01, with HLA-B*57:01, in the experiment with HLA-B*18:01, in the experiment with HLA-A*02:01 [2] (setting [14]) and with HLA-B*15:01 [4] was not above 4.70 in each case. Besides, the pKd with HLA-B*27:03, in the experiment with HLA-B*15:17, in the experiment with HLA-B*46:01, with HLA-B*39:01, with HLA-A*26:01 [5] and with HLA-A*68:02 was not above 4.70 in each case. Besides, the pKd with HLA-A*23:01 (setting [14]), in the experiment with HLA-A*02:03, with HLA-A*02:12, in the experiment with HLA-A*03:01 (setting [14]), in the experiment with HLA-A*29:02 and with HLA-A*24:03 (setting [14]) was not above 4.70 each time. Further, the pKd in the experiment with HLA-A*02:19 [6], in the experiment with HLA-A*02:11 and with HLA-A*01:01 (source organism: Reston ebolavirus - Reston) was not above 4.70 in each case.

Regarding IMDEPTSSL, the pKd was 7.19 with HLA-A*69:01 [7]; not above 4.70 in the experiment with HLA-B*08:01; not above 4.70 with HLA-B*44:02; 7.57 with HLA-A*02:01 [8]; not above 4.70 in the experiment with HLA-B*58:01; 5.68 with HLA-B*35:01. Moreover, the pKd is 6.76 in the experiment with HLA-B*15:01 [9]; not above 4.70 in the experiment with HLA-A*11:01 (setting [15]); not above 4.70 with HLA-A*03:01 (setting [15]); not above 5.30 with HLA-B*07:02; not above 4.70 with HLA-A*31:01 [10]; not above 4.70 with HLA-C*12:03. Further, the pKd in the experiment with HLA-B*27:05 is not above 4.70; with HLA-A*26:01 [11] it was not above 4.70; with HLA-A*01:01 (source organism: Vibrio vulnificus), 4.84.

Turning to RMYWGVNPK, the pKd with HLA-B*45:06 was not above 5.30; with HLA-B*83:01, not above 5.30; in the experiment with HLA-A*32:07, 7.86; in the experiment with HLA-A*31:01 [12], not below 9.00; with HLA-B*15:42 it was not above 5.30; with HLA-A*11:01 (setting [16]), 8.80. The same sequence had a pKd with HLA-A*03:01 (setting [16]) of 8.85.

On to PYWQGIWDK, for which the values for the pKd with HLA-A*23:01 (setting [17]) and with HLA-A*24:03 (setting [17]) were 8.22 and 7.89, respectively.

Values taken from the Immune Epitope Database (IEDB).
